B1: Azoarcus group I ribozyme (parent)
chain: GUGCCUUGCGCCGGGAAACCACGCAAGGGAUGGUGUCAAAUUCGGCGAAACCUAAGCGCCCGCCCGGGCGUAUGGCAACGCCGAGCCAAGCUUCGGCGCCUGCGCCGAUGAAGGUGUAGAGACUAGACGGCACCCACCUAAGGCAAACGCUAUGGUGAAGGCAUAGUCCAGGGAGUGGCGAAAGUCACACAAACCGG

Variants of: B1
Assay: reverse-splicing fitness (ratio to wild type); higher = more active; in vitro selection; Mg2+ level not given
Outline: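 An in vitro group I ribozyme library with randomized positions was T7-transcribed and gel-purified. In triplicate, 10 pmol RNA in EPPS pH 7.5 was reacted with 50 pmoles of a 30-nt RNA substrate for 1 h at 37 °C across several added MgCl2 levels (1–48 mM), then stopped with EDTA. Products were reverse transcribed from a substrate-complementary primer, PCR-amplified and sequenced (HiSeq 4000). Fitness is a variant's read proportion after selection over that before, normalised to wild type.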

Variant	reverse-splicing fitness
C82G A120U A145C C169G U176G	0.00141
C82G A120U A145C C169U	0.00694
C82G A120U A145C C169U U176A	0.00266
C82G A120U A145C C169U U176C	0.00223
C82G A120U A145C C169U U176G	0.00148
C82G A120U A145C U176A	0.0712
C82G A120U A145C U176C	0.0798
C82G A120U A145C U176G	0.0211
C82G A120U A145G	0.229
C82G A120U A145G C150A	0.0245
C82G A120U A145G C150A C169A	0.00575
C82G A120U A145G C150A C169A U176A	0.00645
C82G A120U A145G C150A C169A U176C	0.00287
C82G A120U A145G C150A C169A U176G	0.00256
C82G A120U A145G C150A C169G	0.00459
C82G A120U A145G C150A C169G U176A	0.00555
C82G A120U A145G C150A C169G U176C	0.00422
C82G A120U A145G C150A C169G U176G	0.00199
C82G A120U A145G C150A C169U	0.00376
C82G A120U A145G C150A C169U U176A	0.00465
C82G A120U A145G C150A C169U U176C	0.00375

Variant	reverse-splicing fitness
C82G A120U A145G C150A C169U U176G	0.00206
C82G A120U A145G C150A U176A	0.0118
C82G A120U A145G C150A U176C	0.014
C82G A120U A145G C150A U176G	0.00517
C82G A120U A145G C150G	0.022
C82G A120U A145G C150G C169A	0.00872
C82G A120U A145G C150G C169A U176A	0.012
C82G A120U A145G C150G C169A U176C	0.00809
C82G A120U A145G C150G C169A U176G	0.00485
C82G A120U A145G C150G C169G	0.0074
C82G A120U A145G C150G C169G U176A	0.00901
C82G A120U A145G C150G C169G U176C	0.00637
C82G A120U A145G C150G C169G U176G	0.00411
C82G A120U A145G C150G C169U	0.00739
C82G A120U A145G C150G C169U U176A	0.00829
C82G A120U A145G C150G C169U U176C	0.00701
C82G A120U A145G C150G C169U U176G	0.00451
C82G A120U A145G C150G U176A	0.00899
C82G A120U A145G C150G U176C	0.0152
C82G A120U A145G C150G U176G	0.0041
C82G A120U A145G C150U	0.168

Variant	reverse-splicing fitness
C82G A120U A145G C150U C169A	0.00606
C82G A120U A145G C150U C169A U176A	0.00578
C82G A120U A145G C150U C169A U176C	0.0027
C82G A120U A145G C150U C169A U176G	0.00223
C82G A120U A145G C150U C169G	0.00765
C82G A120U A145G C150U C169G U176A	0.00552
C82G A120U A145G C150U C169G U176C	0.00419
C82G A120U A145G C150U C169G U176G	0.00186
C82G A120U A145G C150U C169U	0.00803
C82G A120U A145G C150U C169U U176A	0.00444
C82G A120U A145G C150U C169U U176C	0.00469
C82G A120U A145G C150U C169U U176G	0.00216
C82G A120U A145G C150U U176A	0.0528
C82G A120U A145G C150U U176C	0.0776
C82G A120U A145G C150U U176G	0.0104
C82G A120U A145G C169A	0.00321
C82G A120U A145G C169A U176A	0.00356
C82G A120U A145G C169A U176C	0.00321
C82G A120U A145G C169A U176G	0.00159
C82G A120U A145G C169G	0.00688
C82G A120U A145G C169G U176A	0.00368

Variant	reverse-splicing fitness
C82G A120U A145G C169G U176C	0.00438
C82G A120U A145G C169G U176G	0.00145
C82G A120U A145G C169U	0.00713
C82G A120U A145G C169U U176A	0.00419
C82G A120U A145G C169U U176C	0.00453
C82G A120U A145G C169U U176G	0.00154
C82G A120U A145G U176A	0.0724
C82G A120U A145G U176C	0.11
C82G A120U A145G U176G	0.0134
C82G A120U A145U	0.23
C82G A120U A145U C150A	0.0151
C82G A120U A145U C150A C169A	0.00187
C82G A120U A145U C150A C169A U176A	0.00218
C82G A120U A145U C150A C169A U176C	0.00199
C82G A120U A145U C150A C169A U176G	0.00156
C82G A120U A145U C150A C169G	0.00252
C82G A120U A145U C150A C169G U176A	0.00221
C82G A120U A145U C150A C169G U176C	0.00192
C82G A120U A145U C150A C169G U176G	0.00134
C82G A120U A145U C150A C169U	0.00221
